Measurements taken from the supplement of paper PMC9112550, “Optimization of the antimicrobial peptide Bac7 by deep mutational scanning” (BMC Biology, 2022).

System: Escherichia coli TOP10
Test: shrunken log2 fold change of peptide-encoding DNA abundance (4.5 h post-induction vs induction); higher = less antimicrobial activity (less host growth inhibition)
Settings: time post-induction: 4.5 h; library: site-saturation at positions 5, 18, 19, 20
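Also: peptides expressed intracellularly from a pBAD plasmid library in pooled LB shake-flask culture, induced with 0.3% L-arabinose, DNA abundance read by NGS, three biological replicates, DESeq2 with apeglm shrinkage.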

Sequence | shrunken log2 fold change
RRIRSRPPRLPRPRPRPKYTPRP | -0.518
RRIRSRPPRLPRPRPRPLCDPRP | 0.155
RRIRSRPPRLPRPRPRPLDKPRP | -0.233
RRIRSRPPRLPRPRPRPLELPRP | 0.12
RRIRSRPPRLPRPRPRPLFWPRP | 0.132
RRIRSRPPRLPRPRPRPLGFPRP | 0.0335
RRIRSRPPRLPRPRPRPLGNPRP | -0.43
RRIRSRPPRLPRPRPRPLIFPRP | -0.403
RRIRSRPPRLPRPRPRPLLDPRP | 0.218
RRIRSRPPRLPRPRPRPLLEPRP | 0.243
RRIRSRPPRLPRPRPRPLLLPRP | -0.0475
RRIRSRPPRLPRPRPRPLLQPRP | -0.227
RRIRSRPPRLPRPRPRPLMSPRP | -0.0126
RRIRSRPPRLPRPRPRPLPWPRP | 0.21
RRIRSRPPRLPRPRPRPLQDPRP | -0.129
RRIRSRPPRLPRPRPRPLQHPRP | -0.00742
RRIRSRPPRLPRPRPRPLTKPRP | -0.175
RRIRSRPPRLPRPRPRPLVHPRP | -0.253
RRIRSRPPRLPRPRPRPLVPPRP | -0.0319
RRIRSRPPRLPRPRPRPLWKPRP | 0.197
RRIRSRPPRLPRPRPRPMAFPRP | -0.0285
RRIRSRPPRLPRPRPRPMCKPRP | 0.204
RRIRSRPPRLPRPRPRPMDCPRP | 0.00208
RRIRSRPPRLPRPRPRPMEMPRP | -0.0909
RRIRSRPPRLPRPRPRPMFEPRP | -0.0573

Sequence | shrunken log2 fold change
RRIRSRPPRLPRPRPRPMFFPRP | -0.274
RRIRSRPPRLPRPRPRPMFIPRP | -0.212
RRIRSRPPRLPRPRPRPMGNPRP | 0.0909
RRIRSRPPRLPRPRPRPMGPPRP | -0.0846
RRIRSRPPRLPRPRPRPMHHPRP | -0.0364
RRIRSRPPRLPRPRPRPMKRPRP | -0.115
RRIRSRPPRLPRPRPRPMLEPRP | -0.0898
RRIRSRPPRLPRPRPRPMLTPRP | -0.0725
RRIRSRPPRLPRPRPRPMMSPRP | 0.0638
RRIRSRPPRLPRPRPRPMNIPRP | -0.196
RRIRSRPPRLPRPRPRPMVFPRP | 0.104
RRIRSRPPRLPRPRPRPMVRPRP | 0.00927
RRIRSRPPRLPRPRPRPMWKPRP | -0.101
RRIRSRPPRLPRPRPRPMYTPRP | -0.0916
RRIRSRPPRLPRPRPRPNAFPRP | -0.0168
RRIRSRPPRLPRPRPRPNASPRP | 0.233
RRIRSRPPRLPRPRPRPNAWPRP | -0.0228
RRIRSRPPRLPRPRPRPNAYPRP | -0.696
RRIRSRPPRLPRPRPRPNCSPRP | -0.0305
RRIRSRPPRLPRPRPRPNCWPRP | 0.292
RRIRSRPPRLPRPRPRPNECPRP | -0.136
RRIRSRPPRLPRPRPRPNFIPRP | -0.391
RRIRSRPPRLPRPRPRPNGGPRP | -0.0284
RRIRSRPPRLPRPRPRPNGKPRP | -0.437
RRIRSRPPRLPRPRPRPNHCPRP | -0.415

Sequence | shrunken log2 fold change
RRIRSRPPRLPRPRPRPNHEPRP | -0.175
RRIRSRPPRLPRPRPRPNKIPRP | -0.294
RRIRSRPPRLPRPRPRPNMFPRP | -0.289
RRIRSRPPRLPRPRPRPNNKPRP | -0.559
RRIRSRPPRLPRPRPRPNNVPRP | -0.592
RRIRSRPPRLPRPRPRPNRAPRP | -0.0803
RRIRSRPPRLPRPRPRPNRFPRP | -0.0804
RRIRSRPPRLPRPRPRPNSGPRP | 0.0845
RRIRSRPPRLPRPRPRPNSPPRP | -0.149
RRIRSRPPRLPRPRPRPNTKPRP | -0.259
RRIRSRPPRLPRPRPRPNWGPRP | -0.0911
RRIRSRPPRLPRPRPRPPAEPRP | 2.3
RRIRSRPPRLPRPRPRPPCEPRP | -0.236
RRIRSRPPRLPRPRPRPPDEPRP | 0.813
RRIRSRPPRLPRPRPRPPDNPRP | -0.0697
RRIRSRPPRLPRPRPRPPDVPRP | 0.14
RRIRSRPPRLPRPRPRPPFDPRP | 0.244
RRIRSRPPRLPRPRPRPPFHPRP | -0.0308
RRIRSRPPRLPRPRPRPPGLPRP | 0.348
RRIRSRPPRLPRPRPRPPHCPRP | 0.105
RRIRSRPPRLPRPRPRPPHDPRP | 0.277
RRIRSRPPRLPRPRPRPPHFPRP | 0.503
RRIRSRPPRLPRPRPRPPHPPRP | 0.325
RRIRSRPPRLPRPRPRPPIEPRP | 0.314
RRIRSRPPRLPRPRPRPPINPRP | -0.32
